This note sets out measurements from PMC4130924 (Protein & Cell, 2014).

Numbering of substitutions follows the chain as printed.

B1: Human ubiquitin C-terminal hydrolase Uch37, full-length (enzyme, UniProt Q9Y5K5 1-329, looked up)
chain: MTGNAGEWCLMESDPGVFTELIKGFGCRGAQVEEIWSLEPENFEKLKPVHGLIFLFKWQPGEEPAGSVVQDSRLDTIFFAKQVINNACATQAIVSVLLNCTHQDVHLGETLSEFKEFSQSFDAAMKGLALSNSDVIRQVHNSFARQQMFEFDTKTSAKEEDAFHFVSYVPVNGRLYELDGLREGPIDLGACNQDDWISAVRPVIEKRIQKYSEGEIRFNLMAIVSDRKMIYEQKIAELQRQLAEEEPMDTDQGNSMLSAIQSEVAKNQMLIEEEVQKLKRYKIENIRRKHNYLPFIMELLKTLAEHQQLIPLVEKAKEKQNAKKAQETK
B2: Full-length Uch37 containing only one cysteine (C27), labelled with Alexa Fluor 555 and Alexa Fluor 647 (enzyme, human, UniProt Q9Y5K5 1-329, looked up)
chain: B1 chain with C9A, C88A, C100A, C191A
modifications: Cys27 conjugated to Alexa Fluor 555 or Alexa Fluor 647 (randomly)
B3: Rpn13C (Rpn13 residues 270-407) (domain or fragment, UniProt Q16186 270-407, looked up)
chain: ILATMNVPAGPAGGQQVDLASVLTPEIMAPILANADVQERLLPYLPSGESLPQTADEIQNTLTSPQFQQALGMFSAALASGQLGPLMCQFGLPAEAVEAANKGDVEAFAKAMQNNAKPEQKEGDTKDKKDEEEDMSLD

Data set [1] concerns the molecule itself. Briefly: time-resolved SAXS; stopped-flow mixing of Uch37 and Rpn13C at a 1:1 monomer molar ratio, overall 3.7 mg/mL, 8 ms to 600 s; I0 and Rg against time.
Data set [2] deals with the molecule itself. In words: FRET or BRET; Uch37 (C27 only) randomly labelled with Alexa Fluor 555 and 647, 250 nmol/L, excited at 550 nm; then an excess molar amount of Rpn13C added, 30 min. On the technique in general: Bioluminescence resonance energy transfer reports proximity on the nanometre scale.
The target of data set [3] is B2. The data set is described as above. The conditions noted are these: both partners purified.
Data set [4] deals with B1. In words: SPR; Biacore3000, 25°C, PBS; Rpn13C immobilised on CM5 by amine coupling, Uch37 15.6-500 nmol/L flowed over; 1:1 Langmuir model. The note with it: both partners purified.

On to B1, for which the binding result in data set [1] is “binds”.

Turning to B2, the binding result in data set [2] is “binds”. A word on the Kd: it is the free concentration of one partner at which half of the binding sites on the other are occupied at equilibrium, for simple one-to-one binding. A low value points to a tighter complex. For B3, in data set [3], the binding result is given as “binds”. For the same molecule, in data set [4], the Kd came to 5.35 nM.
